Entries after “also recorded” stand apart in the source; their conditions may differ.
What was measured:
[1] = test system: CD45+/CD34+ and CD34+/CXCR4+ cells in the heart; assay: Flow cytometry of non myocyte cardiac cells after MI; assay type: in vivo, C57BL/6 and CD26 k.o. mice; conditions: AMD3100 1.25 mg/kg i.p. in G-CSF treated CD26 k.o. and G-CSF-DipA animals
Description: FIGS. 27A, 27C, 27E, Tab. S 3A; Nr. 2: FIGS. 27B, 27D, 27F, Tab. S 3B). Animal care and all experimental procedures were performed in strict accordance to the Guide for the Care and Use of Laboratory Animals published by the US National Institutes of Health (NIH publication No. 85-23, revised 1996). Mice were randomly divided into the following groups: […] G-CSF and/or Diprotin A treatment was initiated immediately after the surgical procedure. Cardiac cells from sham operated and infarcted hearts of wt and CD26 k.o. mice were analyzed 48 hours after MI (n=6). Therefore, a “myocyte-depleted” cardiac cell population was prepared, incubating minced myocardium in 0.1% collagenase IV (Gibco BrL) 30 min at 37° C., lethal to most adult mouse cardiomyocytes (Zhou et al., 2000). Cells were then filtered through a 70-μm mesh. […] Cells were stained with CD45-PerCP, CD34-FITC, CD26-FITC, c-kit-PE, Sca-1-PE, CXCR4-PE Flk-1, Flk-PE, CD3-biotin, CD45R/B220-biotin, CD11b-biotin, TER-119-biotin, Ly-6G-biotin Abs (all from BD Pharmingen) and subjected to flow cytometry using […] flow cytometer and Expo32 ADC Xa software (Beckman Coulter). For evaluation of SDF-1-CXCR4 dependent homing, G-CSF stimulated CD26 k.o. mice were treated i.p. with the CXCR4-antagonist AMD3100 (1.25 mg/kg). Cardiac cells were analyzed 8 hours after the last AMD3100 application. Each analysis included 50000 events.

CXCR4 = CXCR4 (Mus musculus, UniProt P70658); conditions: 48 hours after MI; cited from earlier work
Chain of CXCR4 (P70658 whole entry): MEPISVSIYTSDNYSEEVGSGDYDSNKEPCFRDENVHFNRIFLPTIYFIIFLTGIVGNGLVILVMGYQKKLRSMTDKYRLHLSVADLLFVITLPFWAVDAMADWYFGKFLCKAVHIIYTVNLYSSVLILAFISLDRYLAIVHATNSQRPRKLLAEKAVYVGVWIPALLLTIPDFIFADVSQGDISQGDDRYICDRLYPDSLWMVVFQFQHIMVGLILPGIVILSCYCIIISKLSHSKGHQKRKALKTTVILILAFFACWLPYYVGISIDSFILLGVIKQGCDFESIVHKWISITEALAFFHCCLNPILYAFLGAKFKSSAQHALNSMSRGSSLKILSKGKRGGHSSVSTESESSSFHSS

cortical infarct = conditions: permanent middle cerebral artery occlusion; cited from earlier work
[2] = test system: CD45+/CD34+ and CD45+/CD34- cell populations in peripheral blood; assay: Flow cytometry of peripheral blood mononuclear cells after PTH or G-CSF in healthy mice; assay type: in vivo, C57BL/6 mice; conditions: PTH day 6 and day 14; G-CSF day 6
Description: (§1) For the experiments healthy age- and sex-matched (male, 8-12 weeks of age) C57BL/6 mice (Charles River) were used. Animal care and all experimental procedures were performed in strict accordance to the German and National Institutes of Health animal legislation guidelines and were approved by the local animal care and use committees.
(§2) Mice were divided into the following groups: 1) administration of saline daily for 6 days, sacrificed at day 7 (n=6). 2) administration of PTH (Bachem) daily for 6 consecutive days (80 μg per kg body weight per day, intraperitoneally), sacrificed at day 7 (n=6). 3) administration of PTH daily for 14 consecutive days, sacrificed at day 15 (n=6). 4) administration of G-CSF (Amgen Biologicals) daily for 5 consecutive days (200 μg per kg body weight per day, intraperitoneally), sacrificed at day 6 (n=6).
(§3) at day 6, 1 ml of peripheral blood was harvested from each mouse by aspirating the carotid artery. Bone marrow cells were obtained by flushing the tibias and femurs from the euthanized mice. Mononuclear cells were separated by density-gradient centrifugation using 1.077 g/mL Histopaque solution (Sigma Chemicals), purified and resuspended in phosphate-buffered saline (PBS) containing 1% bovine serum albumin. Cells were incubated for 40 minutes in the dark at 4° C. with following fluorescein-isothiocyanate (FITC), phycoerythrin (PE), and peridinin-chlorphyll-protein (PerCP) conjugated monoclonal antibodies: CD45-PerCP, C34-FITC, CD31-PE, Sca-1-PE and c-kit-PE (all from BD Pharmingen). Isotype-identical antibodies (BD Pharmingen) served as controls. Cells were analyzed by 3-color flow cytometry using a Coulter® Epics® XL-MCL™ flow cytometer (Beckman Coulter). Each analysis included 20000 events. The absolute number of antigen-positive cells per ml of whole blood was calculated by multiplying the percentage of antigen-positive cells with the total number of mononuclear cells per ml of blood detected by the conventional hematological cell analyzer. The number of lymphocytes together with the number of monocytes comprised the total number of mononuclear cells.

[3] = test system: CD45+/CD34+ and CD45+/CD34- cell populations in bone marrow; assay: Flow cytometry of bone marrow cells after PTH or G-CSF in healthy mice; assay type: in vivo, C57BL/6 mice
Description: as §1, §2, §3

CD45+/CD34+ progenitors = assay: FACS of peripheral blood, stem cell mobilization by G-CSF; assay type: in vivo, C57BL/6 and CD26 k.o. mice; conditions: G-CSF 100 μg/kg/d; wt (+/-Diprotin A) and CD26 k.o. mice vs saline
Description: 10 weeks old CD26 k.o. (n=6) were either treated with G-CSF (100 μg/kg/d) or saline daily for 6 days and or C57BL/6 mice (n=6) were treated with saline, G-CSF, Diprotin A or both daily for 6 days. Cells were separated as described previously (Deindl et al., 2006). The following monoclonal antibodies were used: CD45-PerCP, CD34-FITC, CD31-PE, c-kit-PE, Sca-1-PE, CXCR4-PE, Flk-PE, CD3-biotin, CD45R/B220-biotin, CD11b-biotin, TER-119-biotin, Ly-6G-biotin (all from BD Pharmingen). Matching isotype antibodies (BD Pharmingen) served as controls. Cells were analyzed by 3-color flow cytometry using a Coulter® Epics® XL-MCL™ flow cytometer (Beckman Coulter). Each analysis included 50000 events.

infarcted heart = assay: Histology and immunohistochemistry after MI: infarct size, LV wall thickness, CD31+ capillaries (G-CSF, Diprotin A); assay type: in vivo, C57BL/6 and CD26 k.o. mice
Description: (§4) MI was induced in 10 weeks old male CD26 k.o. or C57BL/6 mice by surgical occlusion of the left anterior descending artery (LAD) as described previously (Deindl et al., 2006). Experiments concerning survival and cardiac function were performed by two different operators (Nr. 1: FIGS. 27A, 27C, 27E, Tab. S 3A; Nr. 2: FIGS. 27B, 27D, 27F, Tab. S 3B). Animal care and all experimental procedures were performed in strict accordance to the Guide for the Care and Use of Laboratory Animals published by the US National Institutes of Health (NIH publication No. 85-23, revised 1996).
(§5) Mice were randomly divided into the following groups: Sham operated animals (n=20), infarcted wildtyp (n=20) (wt) receiving either saline (0.9% NaCl), G-CSF (100 μg/kg/d i.p.), Diprotin A (70 μg/kg/twice per day) or G-CSF+Diprotin A and CD26 k.o. animals (n=20) receiving either saline (0.9% NaCl) or G-CSF (100 μg/kg/d) for up to 6 days. G-CSF and/or Diprotin A treatment was initiated immediately after the surgical procedure.
At day 6 (n=6) and day 30 (n=6), hearts were excised. After fixation in 4% phosphate buffered formalin the hearts were cut transversally into 2 mm thick slices and embedded in paraffin. 4 μm thick sections were cut and mounted on positively charged glass slides. […] Infarct size and wall thickness were determined according to Deindl et al. (Deindl et al., 2006).
For immunostaining the following primary antibodies were used: CD45 (rat anti-mouse, BD Pharmingen), CD31 (goat anti-mouse, Santa Cruz), Ki67 (goat anti-mouse, Santa Cruz). […] Apoptotic cells were detected according to Harada et al. 2005 (Harada et al., 2005) using the TUNEL assay (ApopTag, MP Biomedicals). Digital photographs were taken at a magnification of ×400, and 10 random high-power fields (HPF) from the borderzone of each heart sample (n=3) were analyzed. Quantification of blood vessels was assessed by CD31^+ immunohistochemistry in the granulation tissue at the border zone. The numbers of CD31^+ capillaries were quantified from 10 random high power fields (HPF) with 400× magnification.

[4] = test system: TUNEL positive cardiomyocytes; assay: TUNEL staining of apoptotic cardiomyocytes in the border zone after MI; assay type: in vivo, wt and CD26-/- mice; conditions: 2 days after MI, wt and CD26-/- animals, vs saline
Description: as §5
For immunostaining the following primary antibodies were used: CD45 (rat anti-mouse, BD Pharmingen), CD31 (goat anti-mouse, Santa Cruz), Ki67 (goat anti-mouse, Santa Cruz). AEC was used as chromogen. Double staining for CD31 and Ki67 was performed using DAB as additional chromogen (all from Dako). Apoptotic cells were detected according to Harada et al. 2005 (Harada et al., 2005) using the TUNEL assay (ApopTag, MP Biomedicals). Digital photographs were taken at a magnification of ×400, and 10 random high-power fields (HPF) from the borderzone of each heart sample (n=3) were analyzed. Quantification of blood vessels was assessed by CD31^+ immunohistochemistry in the granulation tissue at the border zone. The numbers of CD31^+ capillaries were quantified from 10 random high power fields (HPF) with 400× magnification.

myocardial function = assay: Pressure volume relations four weeks after MI (G-CSF, Diprotin A); assay type: in vivo, C57BL/6 and CD26 k.o. mice; conditions: day 30, CD26 k.o. mice
Description: as §4, §5
For evaluation of pressure-volume relationships in vivo, mice were anesthetised with thiopental (100 mg/kg, i.p.), intubated and ventilated (MiniVent, HUGO SACHS, Freiburg, Germany). After catheterization via the right carotid artery an impedance-micro manometer catheter (Millar Instruments, Houston, Tex.) was introduced into the left ventricle. Raw conductance volumes were corrected for parallel conductance by the hypertonic saline dilution method as described previously (Zaruba et al., 2008). Heamodynamic measurements as well as data analyses were performed by a blinded person using PVAN analysis software (HUGO SACHS, March, Germany).

myocardial infarction = assay: Survival after MI (Kaplan-Meier; G-CSF, Diprotin A); assay type: in vivo, C57BL/6 and CD26 k.o. mice
Description: as §4, §5
Results were expressed as mean±s.e.m. Multiple group comparisons were performed by one-way analyses of variance (ANOVA) followed by the Bonferroni procedure for comparison of means. Comparisons between two groups were performed using the unpaired Student's t-test. Data were considered statistically significant at a value of p≦0.05. Mortality was analyzed by the Kaplan-Meier-method.

Question: Which “recruitment of CD34+/CXCR4+ cells into the heart after MI” value [1] does the source give for `c1cc(CN2CCCNCCNCCCNCC2)ccc1CN1CCCNCCNCCCNCC1` [AMD3100] here?
Answer: Its value is “diminished the number; also recorded: reversed the recruitment”.

Question: What about the “decrease of bone marrow derived cell recruitment after MI” value (CXCR4) of the same molecule?
Answer: The value was 64%.

Question: Which “decrease of cortical infarct size” value (cortical infarct) does the source give for “PTHrP(1-34): parathyroid hormone-related peptide fragment 1-34, SEQ ID NO:7” here?
Answer: The value was “up to 47%”.

B1: G-CSF: granulocyte colony stimulating factor (Amgen Biologicals) (protein, UniProt P09919 31-207, looked up)
Granulocyte …: TPLGPASSLPQSFLLKCLEQVRKIQGDGAALQEKLVSECATYKLCHPEELVLLGHSLGIPWAPLSSCPSQALQLAGCLSQLHSGLFLYQGLLQALEGISPELGPTLDTLQLDVADFATTIWQQMEELGMAPALQPTQGAMPAFASAFQRRAGGVLVASHLQSFLEVSYRVLRHLAQP
Question: What does the source list for B1?
Answer: subtypes of CD45+/CD34+ and CD45+/CD34- cells in peripheral blood [2]: significant increase; increase of CD45+/CD34- cells in bone marrow compared to saline treated mice ([3]; G-CSF treatment, p<0.001): 18.9%; subtypes of CD45+/CD34- cells in bone marrow ([3]; PTH day 6, G-CSF): significantly decreased; subtypes of CD45+CD34+ cells in bone marrow ([3]; PTH day 6 or day 14, G-CSF vs control group): significant decrease; mobilization of CD45+/CD34+ progenitors in peripheral blood (CD45+/CD34+ progenitors): significantly increased mobilization; number of CD31+ capillaries at the infarct borderzone (infarcted heart; 6 days after MI, CD26 k.o. animals): Increased neovascularization; also recorded: significantly increased number; size of LV infarction (scar tissue) (infarcted heart; day 30, CD26 k.o. animals): smaller; thickness of the left ventricular wall (infarcted heart; day 30, CD26 k.o. animals): significantly improved thickness; also recorded: significantly ameliorated; number of TUNEL positive cardiomyocytes in the border zone [4]: decreased apoptotic cell death; also recorded: reduced the number; arterial afterload (arterial elastance) (myocardial function): markedly reduced; diastolic heart function (isovolumetric relaxation parameter Tau) (myocardial function): improved diastolic heart function; ventricular dilation measured by enddiastolic volumes (myocardial function): attenuated ventricular dilation; survival rate (myocardial infarction; CD26 k.o. mice): 75%; survival rate (myocardial infarction; wt animals): 55%
